Laboratory results: patent US20070071742A1 (PERLAN THERAPEUTICS, published 2007)
Positions count from the first letter of the chain named.

B1: HumA humanized 1A6 scFv (scFv, not shown: large carriers)
scFv: DIQMTQSPSSLSASVGDRVTITCRASQSISNNLHWYQQKPGKAPKLLIYHASQSISGVPSRFSGSGSGTDFTLTISSLQPEDFATYYCQQSNSWPYTFGQGTKVEIKRGGGGSGGGGSGGGGSGGGGSEVQLVESGGGLVQPGGSLRLSCAASGFNIKDTYIHWVRQAPGKGLEWVARIDPANDNTIYADSVKGRFTISSDDSKNTAYLQMNSLRAEDTAVYYCTDSGYWFAYWGQGTLVTVSS
B2: HumC humanized 1A6 scFv (scFv, not shown: large carriers)
scFv: B1 scFv with S200G, D226T
B3: HumB humanized 1A6 scFv (scFv, not shown: large carriers)
scFv: B1 scFv with D226A

molecular target: ICAM-1 on HeLa cells (UniProt P05362 28-532, limits assumed); experiment: cell-based or functional assay
Sequence (P05362 28-532 limits assumed): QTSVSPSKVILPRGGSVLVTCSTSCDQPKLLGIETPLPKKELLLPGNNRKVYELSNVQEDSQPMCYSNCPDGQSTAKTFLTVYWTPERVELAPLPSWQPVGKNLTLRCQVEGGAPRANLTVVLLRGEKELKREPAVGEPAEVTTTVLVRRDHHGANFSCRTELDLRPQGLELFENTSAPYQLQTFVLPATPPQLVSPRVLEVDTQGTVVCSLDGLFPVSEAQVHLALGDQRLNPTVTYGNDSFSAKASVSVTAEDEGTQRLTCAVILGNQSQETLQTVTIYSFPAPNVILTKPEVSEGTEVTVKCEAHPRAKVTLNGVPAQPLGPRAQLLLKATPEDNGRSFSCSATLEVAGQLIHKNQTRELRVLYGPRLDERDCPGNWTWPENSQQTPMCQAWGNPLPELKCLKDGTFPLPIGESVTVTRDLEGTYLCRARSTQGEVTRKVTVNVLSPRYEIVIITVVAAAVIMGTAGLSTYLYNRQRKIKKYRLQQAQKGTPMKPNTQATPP

Row | Binder | EC 50 (µM): 50% protection of HeLa cells against HRV15 infection at 1 MOI [µM]
1 | B1 | 2.8
2 | B2 | 0.22
3 | B3 | 0.19
